The target of assay [1] is T1, E. coli-expressed human TNC A2 with C-terminal avi-tag and 6xHis-tag, biotinylated (human, biotinylated in vivo upon expression (avi-tag)).
T1 construct: Used for the selections and ELISA; also called hu TNC A2; biotinylated human TNC A2
T1 chain: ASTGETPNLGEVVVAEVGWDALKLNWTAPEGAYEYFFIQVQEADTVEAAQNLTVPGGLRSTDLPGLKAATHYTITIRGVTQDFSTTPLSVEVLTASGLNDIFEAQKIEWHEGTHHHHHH
Briefly: ELISA, biotinylated human TNC-A2 on neutravidin plates, Fab supernatants detected by anti-Flag/HRP. As for the experimental part: Selections were carried out over 3 rounds using constant antigen concentrations at 100 nM. In round 2, capture of antigen:phage complexes was performed on neutravidin plates instead of streptavidin beads. Specific binders were identified by ELISA as follows using: 100 μl of 100 nM biotinylated human TNC-A2 was coated in each well of neutravidin plates. Fab-containing bacterial supernatants were added and binding Fabs were detected via their Flag-tags by using an anti-Flag/HRP secondary antibody. Once identified, clone 2B10 was bacterially expressed in a 0.5 litre culture volume, affinity purified and further characterized by SPR-analysis using BIACORE T100. See SEQ ID NOs: 56 and 60.

Assay [2] has as its target T2, TNC Fn5-A1-humanA2-A3 antigen construct (human TNC A2 domain in the context of domains A1 and A3), E. … (human, UniProt P24821 991-1075; P24821 1076-1257; P24821 1258-1350, limits assumed, biotinylated).
T2 construct: domain: fifth fibronectin type III domain (Fn5);domain: A1 and A2 domain;domain: A3 domain; Not glycosylated; also called Immob E. coli Ag
T2 sequence (looked up): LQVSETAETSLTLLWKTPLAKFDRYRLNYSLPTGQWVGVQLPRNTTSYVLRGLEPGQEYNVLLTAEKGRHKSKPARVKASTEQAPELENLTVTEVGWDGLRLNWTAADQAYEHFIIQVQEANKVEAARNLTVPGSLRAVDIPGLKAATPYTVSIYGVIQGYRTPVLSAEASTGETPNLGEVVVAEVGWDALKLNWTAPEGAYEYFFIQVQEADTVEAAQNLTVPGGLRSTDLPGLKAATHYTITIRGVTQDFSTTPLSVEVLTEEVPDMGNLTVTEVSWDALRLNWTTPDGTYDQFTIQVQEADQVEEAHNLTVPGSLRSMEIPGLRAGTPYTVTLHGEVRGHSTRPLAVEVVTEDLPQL
The assay can be described thus: SPR, Biacore T100, biotinylated antigen on streptavidin chip, Fab as analyte. On the procedure:
(§1) The affinity of the TNC A2 2B10 Fab fragment as well as of the human IgG1 converted TNC A2 2B10 antibody was subsequently determined and confirmed for human, murine and cynomolgus TNC A2 domain by surface plasmon resonance using a BIACORE® T100 machine (GE Healthcare) at 25° C. For this purpose the biotinylated antigens (expressed in E. coli, antigen in context but not glycosylated) were immobilized on a streptavidin chip and the constructs were used as analytes. For immobilization the antigens were diluted with HBS-EP+ (GE Healthcare, 10 mM HEPES, 150 mM NaCl, 3 mM EDTA, 0.05% Surfactant P20, pH 7.4) to 0.1 μg/ml before injection at a flow rate of 10 μl/minute to achieve approximately 80 response units (RU) of coupled protein. The TNC A2 domain from man, mouse and cynomolgus monkey was expressed in the context of the domains A1 and A3. The antigen constructs comprising the fifth fibronectin type III domain of human TNC (Fn5), the A1 and A2 domain of either human, murine or cynomolgus TNC, and the A3 domain of human TNC (TNC Fn5-A1-human/murine/cynoA2-A3) are shown in SEQ ID NOs 99-104.
(§2) For kinetics measurements, two-fold serial dilutions of Fab fragments (range between 1.56 nM to 100 nM) or IgG (range between 0.39 nM to 25 nM) were injected in HBS-EP+ at 25° C. at a flow rate of 50 μl/min. Association and dissociation times were 180 s and a regeneration with 10 mM glycine pH 1.5 for 60 s was performed between cycles. Association rates (kₒₙ) and dissociation rates (koff) were calculated using a simple one-to-one Langmuir binding model (BIACORE® T100 Evaluation Software version 1.1.1) by simultaneously fitting the association and dissociation sensorgrams. The equilibrium dissociation constant (KD) was calculated as the ratio koff/kₒₙ. See, e.g., Chen et al., J Mol Biol 293, 865-881 (1999)

Assay [3] addresses T3, TNC Fn5-A1-murineA2-A3 antigen construct (murine TNC A2 domain in the context of domains A1 and A3), E. … (human; murine, UniProt P24821 991-1075; Q80YX1 1076-1257; P24821 1258-1350, limits assumed, biotinylated).
T3 construct: domain: fifth fibronectin type III domain (Fn5);domain: A1 and A2 domain;domain: A3 domain; also called Immob E. coli Ag
T3 sequence (looked up): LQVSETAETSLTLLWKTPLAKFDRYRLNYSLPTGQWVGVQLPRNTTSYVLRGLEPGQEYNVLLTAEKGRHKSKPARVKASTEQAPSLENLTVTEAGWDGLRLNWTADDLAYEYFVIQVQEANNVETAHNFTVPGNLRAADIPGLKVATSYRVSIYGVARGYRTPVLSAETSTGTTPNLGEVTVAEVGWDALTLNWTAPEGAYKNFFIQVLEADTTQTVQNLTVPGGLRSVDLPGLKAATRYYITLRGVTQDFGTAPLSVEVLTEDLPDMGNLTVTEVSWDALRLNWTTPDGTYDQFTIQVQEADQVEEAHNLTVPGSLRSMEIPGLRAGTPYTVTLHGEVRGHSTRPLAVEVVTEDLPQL
Described as above. On the procedure:
as §1, §2

Assay [4] deals with T4, TNC Fn5-A1-cynoA2-A3 antigen construct (cynomolgus TNC A2 domain in the context of domains A1 and A3), E. … (human; cynomolgus, UniProt P24821 991-1075; P24821 1258-1350).
T4 construct: also called Cyno TNC; Immob E. coli Ag
The description is as above. On the procedure:
as §1, §2

The target of assay [5] is T2, TNC Fn5-A1-humanA2-A3 antigen construct …. Briefly: SPR, Biacore T100, biotinylated antigen on streptavidin chip, IgG as analyte (avidity). On the procedure: as §1, §2
Assay [6] deals with T3, TNC Fn5-A1-murineA2-A3 antigen …. Described as above. On the procedure: as §1, §2
The target in assay [7] is T4, TNC Fn5-A1-cynoA2-A3 antigen construct …. Described as above. As for the experimental part:
as §1, §2

Assay [8] has as its target T1, E. coli-expressed human TNC A2 with …. The assay can be described thus: selection on human TNC A2, ELISA and ProteOn screening. As for the experimental part:
Selections were carried out against E. coli expressed human TNC A2 which was cloned upstream an avi-tag and 6×his-tag (see SEQ ID NO: 97). The antigen was biotinylated in vivo upon expression. Selections have been carried out in solution as described for the primary TNC A2 selections using decreasing concentrations of human TNC A2 ranging from 100 to 2 nM. After identification of affinity-matured clones by ELISA, secondary screenings were carried out using a ProteOn XPR36 biosensor (Biorad) and kinetic rate constants and affinities were determined analyzing affinity-purified Fab preparations on the same instrument. KD was measured by surface plasmon resonance using a ProteOn XPR36 machine (Biorad) at 25° C. with antigens immobilized on NLC sensor chips (Biorad). Briefly, recombinant antigen was diluted to 10 μg/ml in PBS/0.005% Tween-20, pH 7.4 and injected at […] for 100 to 300 s to achieve approximately 200-800 response units (RU) of coupled antigen. […] Association rates (kₒₙ) and dissociation rates (koff) were calculated using a simple one-to-one Langmuir binding model (ProteOn manager software version 2.1) by simultaneously fitting the association and dissociation sensorgrams. The equilibrium dissociation constant (KD) is calculated as the ratio koff/kₒₙ.

B1: 2B10 anti-TNC A2 Fab fragment (parental clone 2B10) (Fab, V domains shown)
VH: QVQLVQSGAEVKKPGSSVKVSCKASGGTFSSYAISWVRQAPGQGLEWMGGIIPIFGTANYAQKFQGRVTITADKSTSTAYMELSSLRSEDTAVYYCARLYGYAYYGAFDYWGQGTTVTVSS
VL: DIQMTQSPSSLSASVGDRVTITCRASQGIRNDLGWYQQKPGKAPKRLIYAASSLQSGVPSRFSGGGSGTEFTLTISSLQPEDFATYYCLQNGLQPATFGQGTKVEIK
notes: also called TNC A2 2B10 Fab fragment; Fab fragment 2B10
Consider B1, for which the binding result in assay [1] is listed as “binds”. Also, the results for the Kd in assay [2], in assay [3] and in assay [4] were 1.8 nM, 180 nM and 17 nM, respectively.

B2: 2B10 anti-TNC A2 human IgG1 antibody (wild-type, non-glycoengineered) (antibody, V domains shown)
VH: QVQLVQSGAEVKKPGSSVKVSCKASGGTFSSYAISWVRQAPGQGLEWMGGIIPIFGTANYAQKFQGRVTITADKSTSTAYMELSSLRSEDTAVYYCARLYGYAYYGAFDYWGQGTTVTVSS
VL: DIQMTQSPSSLSASVGDRVTITCRASQGIRNDLGWYQQKPGKAPKRLIYAASSLQSGVPSRFSGGGSGTEFTLTISSLQPEDFATYYCLQNGLQPATFGQGTKVEIK
notes: also called IgG 2B10; 2B10 human IgG
For the molecule B2, the Kd in assay [5] was 0.29 nM; in assay [6], 1.9 nM; in assay [7], 0.21 nM.

B3: 2B10_D1A2 affinity-matured anti-TNC A2 Fab clone (Fab, V domains shown)
VH: QVQLVQSGAEVKKPGSSVKVSCKASGGTFSSYAISWVRQAPGQGLEWMGGIIPIFGTANYAQKFQGRVTITADKSTSTAYMELSSLRSEDTAVYYCARLYGYAYYGAFDYWGQGTTVTVSS
VL: DIQMTQSPSSLSASVGDRVTITCRASQGIRNVLGWYQQKPGKAPKRLIYDAYSLQSGVPSRFSGGGSGTEFTLTISSLQPEDFATYYCLQNGLQPATFGQGTKVEIK
notes: From the VL sub-library; No KD is printed for this clone; also called clone 2B10_D1A2
Turning to B3, the binding result in assay [8] is “binds”.

Values taken from patent publication US20160264651A1 (Hoffmann-La Roche, published 2016).
